Results: patent US20260098059A1 (ENDOMET BIOSCIENCES, published 2026)
“And” between values parts separate entries of the source, which are not always exact repeats. Equal values may be shown once. Values belong to the binder of their own block, whether it stands above or below them. [ ]: non-standard residue; d: D form. The star is where a group is joined. NMeW = CN[C@@H](Cc1c[nH]c2ccccc12)C(=O)O; Stearoyl = CCCCCCCCCCCCCCCCCC(=O)*; αMeV = CC(C)[C@](C)(N)C(=O)O; αMeS = C[C@](N)(CO)C(=O)O

Legend:
β-catenin [1] = target: T1, β-catenin (UniProt P35222 134-665, limits assumed, biotinylated in the SPR and plate assays); experiment: competitive FP
T1 construct: also called beta catenin; biotinylated β-catenin
T1 sequence (looked up): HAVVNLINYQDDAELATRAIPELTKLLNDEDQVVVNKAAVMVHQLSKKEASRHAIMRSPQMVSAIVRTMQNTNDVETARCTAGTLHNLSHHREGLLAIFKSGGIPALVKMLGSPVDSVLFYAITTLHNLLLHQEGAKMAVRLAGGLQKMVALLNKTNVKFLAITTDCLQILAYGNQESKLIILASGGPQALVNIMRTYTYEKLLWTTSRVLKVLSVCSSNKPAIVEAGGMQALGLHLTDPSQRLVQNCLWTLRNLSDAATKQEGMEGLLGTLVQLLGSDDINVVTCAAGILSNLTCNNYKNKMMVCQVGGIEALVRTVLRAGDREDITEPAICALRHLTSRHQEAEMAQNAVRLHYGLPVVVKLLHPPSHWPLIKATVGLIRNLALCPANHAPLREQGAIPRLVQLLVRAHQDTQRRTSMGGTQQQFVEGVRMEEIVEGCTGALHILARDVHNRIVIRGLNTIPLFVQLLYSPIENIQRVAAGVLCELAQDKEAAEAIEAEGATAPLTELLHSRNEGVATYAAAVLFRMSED
Summary of the method: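 Competitive fluorescence polarization with inhibitor peptide serially diluted from 10 nM to 30 uM; polarization read at 470 nm excitation, 520 nm emission. Experiments performed three times.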

β-catenin [2] = target: T1, β-catenin; experiment: SPR (Biacore); SPR (Biacore), direct binding
Experimental: Biotinylated protein (beta catenin) was immobilized on a high-affinity streptavidin (SA) sensor chip (GE). Peptide at increasing concentrations was flowed over in HBS EP+ buffer at room temperature according to manufacturer's instructions. The maximum binding capacity of the surface (response at saturation) was calculated using the Biacore® system (GE) instructions and binding was measured at each concentration as a data point. The binding levels were determined over a range of analyte concentrations of at least from 20% to 80% saturation of the surface. On rates, off rates, and KD were calculated using Biacore® Insight Evaluation Software software (GE).

β-catenin [3] = target: T1, β-catenin; experiment: cell-based or functional assay
[4] = target: T2, β-catenin in mouse endometriosis lesions (mouse, UniProt Q02248 2-781); experiment: immunofluorescence co-localisation in mouse lesions
T2 construct: Endogenous protein in fixed tissue sections; also called cytoplasmic β-catenin
T2 sequence (looked up): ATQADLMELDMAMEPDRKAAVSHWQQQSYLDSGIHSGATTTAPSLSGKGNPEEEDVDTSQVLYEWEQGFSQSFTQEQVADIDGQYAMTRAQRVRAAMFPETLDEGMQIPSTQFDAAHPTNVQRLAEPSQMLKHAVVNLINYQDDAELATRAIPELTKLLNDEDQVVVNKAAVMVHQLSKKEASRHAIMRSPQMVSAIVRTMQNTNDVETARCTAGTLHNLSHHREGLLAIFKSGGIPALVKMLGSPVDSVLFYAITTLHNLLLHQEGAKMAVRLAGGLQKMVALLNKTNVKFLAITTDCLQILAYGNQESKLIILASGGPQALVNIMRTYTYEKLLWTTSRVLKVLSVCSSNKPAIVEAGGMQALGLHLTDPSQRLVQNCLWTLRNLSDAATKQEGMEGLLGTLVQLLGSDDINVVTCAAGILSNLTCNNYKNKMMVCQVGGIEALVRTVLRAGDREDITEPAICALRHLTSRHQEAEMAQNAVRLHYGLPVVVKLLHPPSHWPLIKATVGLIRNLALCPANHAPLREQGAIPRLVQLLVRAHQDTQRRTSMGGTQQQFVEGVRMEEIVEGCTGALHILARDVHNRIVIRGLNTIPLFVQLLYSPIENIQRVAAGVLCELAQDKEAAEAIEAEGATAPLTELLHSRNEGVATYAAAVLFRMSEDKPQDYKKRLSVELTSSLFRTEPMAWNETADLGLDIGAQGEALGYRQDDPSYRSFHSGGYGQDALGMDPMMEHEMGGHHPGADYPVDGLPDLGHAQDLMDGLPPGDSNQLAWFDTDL
Experimental: Endometriosis was established in a mouse model of disease. Mice were allowed to establish endometriosis for 3 weeks. […] To assess the localization of the peptides and β-catenin, lesions from the endometriosis mouse model were assessed. On the last day of treatment, in order to visualize the peptide localization to the lesion(s), mice were dosed with a biotinylated tagged peptide therapeutic or control. Mice were euthanized, lesions were removed, and fixed in formalin for histology and immunohistochemistry. […] Immunohistochemical negative controls were performed on lesion sections from all treatment groups using IgG non-specific antibodies (Rabbit-IgG, AbCam 1:100).

Kd (β-catenin [1]): > 30 µM
Kd (β-catenin [2]): 0.12 µM
Wnt Reporter EC50 (β-catenin [3]): > 15 µM and ≤ 22.5 µM
B1: SEQ ID NO: 16 (peptide)
peptide: MSRMWFLISFWAG
HELM: PEPTIDE1{M.S.R.M.W.F.L.I.S.F.W.[meA].G}$$$$V2.0
SMILES: CC[C@H](C)[C@H](NC(=O)[C@H](CC(C)C)NC(=O)[C@H](Cc1ccccc1)NC(=O)[C@H](Cc1c[nH]c2ccccc12)NC(=O)[C@H](CCSC)NC(=O)[C@H](CCCNC(=N)N)NC(=O)[C@H](CO)NC(=O)[C@@H](N)CCSC)C(=O)N[C@@H](CO)C(=O)N[C@@H](Cc1ccccc1)C(=O)N[C@@H](Cc1c[nH]c2ccccc12)C(=O)N(C)[C@@H](C)C(=O)NCC(=O)O

binding result [4]: binds
Proliferation IC50, Endo cells (β-catenin [3]): 5 µM
Proliferation IC50, Wnt dependent cells (β-catenin [3]): 1.7 µM
Wnt Reporter EC50 (β-catenin [3]): ≤ 7.5 µM
Binder: Stearoyl-W[NMeW]E[αMeS]ILDEH[αMeV]QRVW-OH (393 used) [Peptide 4 (SEQ ID NO: 393/500)]

Kd (β-catenin [1]): > 30 µM
Kd (β-catenin [2]): 0.076 µM
Wnt Reporter EC50 (β-catenin [3]): > 30 µM
B2: SEQ ID NO: 18 (peptide)
peptide: KAESILDEHVQRVWG
HELM: PEPTIDE1{K.[meA].E.S.I.L.D.E.H.V.Q.R.V.W.G}$PEPTIDE1,PEPTIDE1,1:R3-15:R2$$$V2.0
SMILES: CC[C@H](C)[C@@H]1NC(=O)[C@H](CO)NC(=O)[C@H](CCC(=O)O)NC(=O)[C@H](C)N(C)C(=O)[C@@H](N)CCCCNC(=O)CNC(=O)[C@H](Cc2c[nH]c3ccccc23)NC(=O)[C@H](C(C)C)NC(=O)[C@H](CCCNC(=N)N)NC(=O)[C@H](CCC(N)=O)NC(=O)[C@H](C(C)C)NC(=O)[C@H](Cc2c[nH]cn2)NC(=O)[C@H](CCC(=O)O)NC(=O)[C@H](CC(=O)O)NC(=O)[C@H](CC(C)C)NC1=O

Kd (β-catenin [1]): > 30 µM
Kd (β-catenin [2]): 0.059 µM
Wnt Reporter EC50 (β-catenin [3]): > 30 µM
B3: SEQ ID NO: 19 (peptide)
peptide: KAQSILDEHVQRVWG
HELM: PEPTIDE1{K.[meA].Q.S.I.L.D.E.H.V.Q.R.V.W.G}$PEPTIDE1,PEPTIDE1,1:R3-15:R2$$$V2.0
SMILES: CC[C@H](C)[C@@H]1NC(=O)[C@H](CO)NC(=O)[C@H](CCC(N)=O)NC(=O)[C@H](C)N(C)C(=O)[C@@H](N)CCCCNC(=O)CNC(=O)[C@H](Cc2c[nH]c3ccccc23)NC(=O)[C@H](C(C)C)NC(=O)[C@H](CCCNC(=N)N)NC(=O)[C@H](CCC(N)=O)NC(=O)[C@H](C(C)C)NC(=O)[C@H](Cc2c[nH]cn2)NC(=O)[C@H](CCC(=O)O)NC(=O)[C@H](CC(=O)O)NC(=O)[C@H](CC(C)C)NC1=O
